Reference: the supplement of paper PMC10899765

Key:
Conditions in all cases: 20 nM; 72 h
[1] = system: MCF10A; assay: percent viability (nuclei count relative to siNT); higher = more viable cells
Experimental: (§1)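 After 72 h, cells were fixed and stained with Hoechst and anti-fibrillarin, and nucleoli per nucleus were counted with CellProfiler. Values are plate-adjusted percent effect for the one-nucleolus and 5+ nucleoli phenotypes, normalised to siNT (0%) and to the positive controls siNOL11 or siKIF11 (100%), as the mean of biological triplicates. Percent viability is the nuclei count relative to siNT.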

[2] = system: MCF10A; assay: one-nucleolus phenotype percent effect (relative to siNT 0% and siNOL11 100%); higher = more cells with one nucleolus (ribosome biogenesis inhibition)
Experimental: as §1

[3] = system: MCF10A; assay: 5+ nucleoli phenotype percent effect (relative to siNT 0% and siKIF11 100%); higher = more cells with five or more nucleoli
Experimental: as §1

Row | Sequence | percent viability [1] [%] | one-nucleolus phenotype percent effect [2] [%] | 5+ nucleoli phenotype percent effect [3] [%]
1 | CGUGGAUAUUCCUUCUAUGUUU [hsa-miR-376b-5p] | 22 | 9.58 | -14
2 | AGGGCCCCCCCUCAAUCCUGU [hsa-miR-296-5p] | 49.5 | 2.62 | 11.6
3 | UGCCCUAAAUGCCCCUUCUGGC [hsa-miR-18b-3p] | 98.8 | -2.3 | -9.28
4 | CUUCUUGUGCUCUAGGAUUGU [hsa-miR-578] | 32.6 | 19.6 | -13.1
5 | GGCUGAGUGGGGUUCUGACUCC [hsa-miR-8077] | 31.9 | -3.93 | -6.36
6 | GAGCCCCUCUCUGCUCUCCAG [hsa-miR-6769a-3p] | 92.9 | -15.3 | 9.99
7 | UAGCACCAUCUGAAAUCGGUUA [hsa-miR-29a-3p] | 65.1 | -24 | 46.9
8 | UGGGAUCCAGACAGUGGGAGAA [hsa-miR-4713-3p] | 26 | -1.28 | 16.3
9 | GGCUGGUCAGAUGGGAGUG [hsa-miR-6131] | 71 | -3.05 | 1.34
10 | UCCUUCAUUCCACCGGAGUCUG [hsa-miR-205-5p] | 67.4 | 21 | -17.6
11 | GCAGCAGGGUGAAACUGACACA [hsa-miR-761] | 56.9 | 4.85 | 9.29
12 | AUAGCAGCAUAAGCCUGUCUC [hsa-miR-4524b-5p] | 21 | -0.0215 | -6.19
13 | AUGGAGAAGGCUUCUGA [hsa-miR-4531] | 32.2 | 56.1 | -33.8
14 | GAAGUGCUUCGAUUUUGGGGUGU [hsa-miR-373-3p] | 65.4 | -22.2 | 47.5
15 | UCCCUGAGACCCUUUAACCUGUGA [hsa-miR-125a-5p] | 117 | -18.8 | 28.8
16 | UGAGACAGGCUUAUGCUGCUAU [hsa-miR-4524a-3p] | 21.6 | 24.8 | 8.73
17 | GUGGCUGCACUCACUUCCUUC [hsa-miR-647] | 46 | 33.1 | -9.97
18 | GUGGGAUUUCUGAGUAGCAUC [hsa-miR-5089-5p] | 36.5 | 3.12 | -4.04
19 | AACCACUUUCUUUGCUCAUCCA [hsa-miR-1255b-2-3p] | 32.1 | 7.09 | -17.2
20 | GGUGAGGCUAGCUGGUG [hsa-miR-4316] | 41.7 | 13.5 | -8.12

Row | Sequence | percent viability [1] [%] | one-nucleolus phenotype percent effect [2] [%] | 5+ nucleoli phenotype percent effect [3] [%]
21 | CCAAACCAGUCGUGCCUGUGG [hsa-miR-6715a-3p] | 40.8 | 24.3 | -42
22 | AGGCAGCGGGGUGUAGUGGAUA [hsa-miR-885-3p] | 19.2 | 61.2 | -36.7
23 | CUGGGAGAAGGCUGUUUACUCU [hsa-miR-30c-2-3p] | 21.9 | 45.5 | -29.4
24 | GUGAGUGUGGAUUUGGCGGGGUU [hsa-miR-6790-5p] | 31.8 | 18.2 | -26
25 | AUUGUAGAACCUAAGAUUGGCC [hsa-miR-3674] | 27.9 | 40.2 | -29.6
26 | CAGGAUCCACAGAGCUAGUCCA [hsa-miR-4661-3p] | 31.4 | 7.03 | -16
27 | UCUCUGAGUACCAUAUGCCUUGU [hsa-miR-3921] | 59.6 | -20.1 | -6.05
28 | UAUGGCUUUUUAUUCCUAUGUGA [hsa-miR-135a-5p] | 69 | -3.65 | -18.7
29 | AAGCCCUUACCCCAAAAAGCAU [hsa-miR-129-2-3p] | 64.7 | 24 | -31.7
30 | CAAGGCCAAAGGAAGAGAACAG [hsa-miR-4753-5p] | 31.8 | 2.71 | -19.1
31 | CAGGCAGGUGUAGGGUGGAGC [hsa-miR-6893-5p] | 31.2 | -3.82 | -6.16
32 | UUUCAGAUAACAGUAUUACAU [hsa-miR-3942-3p] | 58.8 | -15.3 | -0.677
33 | UGCCUAGGCUGAGACUGCAGUG [hsa-miR-3135a] | 25.7 | 2.6 | 1.84
34 | UUAGUGAAGGCUAUUUUAAUU [hsa-miR-3606-5p] | 109 | 6.89 | -9.93
35 | UGGAUAUGAUGACUGAAA [hsa-miR-4791] | 71.5 | -7.67 | 4.66
36 | UGGAGUUAAGGGUUGCUUGGAGA [hsa-miR-4653-3p] | 12.9 | 47.6 | -39.9
37 | ACUCAUUCUCCUCUGUCCAG [hsa-miR-6758-3p] | 147 | -26.2 | 81.4
38 | GCUGGUUUCAUAUGGUGGUUUAGA [hsa-miR-29b-1-5p] | 100 | -17.6 | 38.2
39 | CAGAGUGACAAGCUGGUUAAAG [hsa-miR-5586-3p] | 98.4 | -14.6 | 27.8
40 | AGCAGAGGCAGAGAGGCUCAGG [hsa-miR-2467-3p] | 4.65 | 26.3 | -24.4

Row | Sequence | percent viability [1] [%] | one-nucleolus phenotype percent effect [2] [%] | 5+ nucleoli phenotype percent effect [3] [%]
41 | UAGGUGGCAGAGGAGGGACUUCA [hsa-miR-6865-5p] | 11.7 | 20.5 | -3.22
42 | UCUGUGAGACCAAAGAACUACU [hsa-miR-4677-3p] | 28.6 | 23.1 | -42.7
43 | UAUCGUAUCGUAUUGUAUUGU [hsa-miR-5686] | 93.8 | -22.7 | 39.8
44 | GCAGGACAGGCAGAAGUGGAU [hsa-miR-4436a] | 105 | -24.9 | 32.1
45 | UCGCGGUUUGUGCCAGAUGACG [hsa-miR-579-5p] | 64.6 | -22.2 | 41.8
46 | UGAAGCUCUAAGGUUCCGCCUGC [hsa-miR-3928-5p] | 23.8 | 20.8 | -19.2
47 | UGUCUAUACUCUGUCACUUUAC [hsa-miR-4796-5p] | 34.7 | 45.9 | -19.7
48 | AAGUGCUUCCUUUUAGAGGGUU [hsa-miR-520f] | 46.9 | 4.79 | 26.9
49 | AGGAAGCAAGAGAACCCUGUGG [hsa-miR-6828-5p] | 26.9 | 18.9 | -41.5
50 | UAUUCAGAAAGGUGCCAGUCA [hsa-miR-892c-5p] | 71.8 | -3.71 | 9.47
51 | UGGGAAAGACAAACUCAGAGUU [hsa-miR-6733-5p] | 23.6 | 5.71 | 8.82
52 | UAGGGGCAGCAGAGGACCUGGG [hsa-miR-4688] | 17.5 | 23.4 | 8.84
53 | AUAUGCCUGGCUAGCUCCUC [hsa-miR-4633-5p] | 31.4 | 27.8 | -31.2
54 | UCUGUGCUUCACCCCUACCCAG [hsa-miR-6737-3p] | 68.8 | 3.19 | -3.33
55 | UGUUUCGGGGCUCAUGGCCUGUG [hsa-miR-5705] | 136 | -18.8 | 33.2
56 | UCGUGCAUAUAUCUACCACAU [hsa-miR-4536-3p] | 49.3 | 2.78 | 0.0637
57 | AUCUAAAUGCAGCAUGCCAGUC [hsa-miR-4799-5p] | 59.9 | -0.603 | 15
58 | UCAGUGUCUGGAUUUCCUAG [hsa-miR-6733-3p] | 70.7 | -2.06 | -16.2
59 | UGUGACUGGUUGACCAGAGGGG [hsa-miR-134] | 28 | 31.9 | -26.5
